Laboratory results taken from the supplement of paper PMC12764529.
± gives the half width of the 95% confidence interval.

Experiment: folding stability dG unfold from chymotrypsin proteolysis; higher = more stable
Summary of the method: (§1)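 Sequencing followed digestion of designed mini-proteins with trypsin and chymotrypsin, each at 11 concentrations in threefold dilutions together with a no-protease condition. The mini-proteins were under 80 residues, had no cysteine, sat in a PA-tagged cDNA display construct, and were kept only if AlphaFold2 dimer inter-PAE was above 15. From the counts, Bayesian fitting gave K50, and unfolding free energy was derived against a sequence-predicted unfolded-state K50 and a shared folded-state K50, per protease or combined.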

Sequence | folding stability dG unfold [kcal/mol]
SAGGSGMIPVTVDFPPDVSEEEIKAYVEELEKKGYKVLKVEITTEKDAKGNTLRTVTVVLAPPSLLSAGGSA [r2_442_JUSTAS] | 3.143 ± 0.02
SAGGSAMETIELKLEDGSTLTIERDPENPNTLTITFEDGRKITVTADSAEEALKKALELAKEGKLPSAGGSA [r15_38_TrROS_Hall] | 4.58 ± 0.16
SAEPTLAEATNDPATGTATANFPLENLPPDYRVLAVNLETGEVTEFPPDGEVTITAPEGPVLVKLFWKGSAG [r14_134_TrMRF] | -0.512 ± 0.55
SAGGSAGGTIPSDYSVKELKVGGKKYVIVRYPDGIVELYSVEGNKKTLLRTVDTDPNASVSISGSAGGSAGG [r6_476_JUSTAS] | 2.67 ± 0.04
SAGGSAGGSAGGEIKGKKFKIVKIVEVRYDKETKEFYVRIYIEDTNEIITVRLEDLPEELSAGGSAGGSAGG [r7_304_TrROS_Hall] | 2.29 ± 0.025
SAGGSAGGSAGVVLKEPKGGVPKTITEDPNHPGLYTTGSPDGTISTRPLEIKPEEEPVLLSAGGSAGGSAGG [r17_85_JUSTAS] | -0.542 ± 0.4
SAGGSAGGSAGGPPSVPITITLIILFPDGYFIVIELTIEVPPDGEIEIKIKILHIFPVKSAGGSAGGSAGGS [r10_1139_TrROS] | 3.76 ± 0.12
SAGGITINEDGTITIEVNGKTYTIKLPPGAEITKIEVLEDGTIKITLRINGKTVTLELKVYKEGEEPSAGGS [r16_635_TrROS_Hall] | 6.55 ± 0.68
SAGGSAPWVTLPIIIMFDSPEQAVEEVKPIFQELFGIKDVNVEEEPMPNGMVFVPIEITIPAENMKSAGGSA [r15_173_TrROS] | 1.38 ± 0.07
SAYLMFMIPIKNDEITIKIPVPPGYYVRIFVFFPDGMEPRTIPPDEKVKIKIPKPGAWIMIMVYPAEEMSAG [r14_882_TrROS] | 5 ± 0.16
SAGGSAGGSASVKVEEKPTEIVITTKSPSPVITVETIPLSPDGVPVGKKTTTISLPPKDIILSAGGSAGGSA [r18_300_JUSTAS] | -0.778 ± 0.15
SAGGKLQLLLRSPDGNVEVALSFEKLPDGKVKVTATVRNKKTGRTYRLEVTFDLKTKKIEIKLEELPSAGGS [r16_684_TrROS_Hall] | 6.24 ± 0.14
SAGGKIKIKINGKTYTVEDAEIIEVKKNKNGKKEIIIKIKVNGKTYEIVISEEDLKKIKPGDTITLKSAGGS [r16_638_TrROS_Hall] | 3.19 ± 0.045
SAGGGLSPDTPVNYVVFVELPNGERRTFNVPGPAGRPEVAIAIAEKLREEGYEVKAIFPGEGVIVVGSAGGS [r8_497_TrMRF] | 3.117 ± 0.0089
SAGGSAGGSASVTTTTTPLPGDRTLTTTTYPDGTVKVTTYTVDTATGTVTSTSTTLSPATLTSAGGSAGGSA [r18_325_JUSTAS] | 0.254 ± 0.12
SMLTITDENGNTITLPAAGEPVTLTVEIEVDGYTVTVEITFDADTKKITIKVEVTNPNGEKQTFTFTFDLSA [r9_1073_TrROS_Hall] | 4.23 ± 0.083
SAGGMKIIEIEYDEETGKYKFKIKIYDKKTGKLYEIEVEVDKKTGKLSIEEIAKKIAEKLGLPKDIKISAGG [r13_362_TrROS_Hall] | 4.03 ± 0.062
SAGGMMTPVSEETLPDGSKVLVEENPATGERTVTTLNPATGTVTTETLKRVPGENAWTLLSKTTTPAPSAGG [r19_249_JUSTAS] | 1.83 ± 0.02
SAGMLVRVTLKYPDGKTIKIPFPYAKILSEETSNNETTFTIDSPESADKAVEAIKKEYPDIEVKVEPLESAG [r5_453_JUSTAS] | 2.46 ± 0.035
SAGGSAGGMKITIEKLDPEKGVYLLTVKPPGPGKTLVIELPVEKEEEALAFAKKLEELGYEVENSAGGSAGG [r6_796_TrMRF] | 1.57 ± 0.12
SAGGSAGGPIKDSKGKFIVTFEFPNGLKKKFEVENIKNPEIEFNFNGKKVKTKIIEIKKGDESKSAGGSAGG [r6_575_TrMRF] | -0.004 ± 0.21

Experiment: folding stability dG unfold (combined trypsin and chymotrypsin); higher = more stable
Summary of the method: as §1

Sequence | folding stability dG unfold [kcal/mol]
SAGGSAGGSAGGKVKIVSVSYDPETGKLTVEVEIPNPKKLLTVTTDNPNIPAEEIAKKLASAGGSAGGSAGG [r7_833_TrMRF] | 0.362 ± 0.15
SAGGSAGGSAGGEKKKIAKKIKEELEKKGIKVKKVETSEDYIYITFEDGSKKKIKIDKGSAGGSAGGSAGGS [r10_169_TrMRF] | 1.74 ± 0.2
SAGGSAGGSAGGNNLYSTSTTVLSTVPVRPDETVTRPGTGAPVSPSETVALSTTSTAPSLSAGGSAGGSAGG [r11_793_JUSTAS] | 0.246 ± 0.054
SAGGSAGGSAGAAVSPEELKEKAKKEGYDGEVVVTRLPDGTLRVTVKDKGKKSEITVPLESAGGSAGGSAGG [r11_410_JUSTAS] | 0.672 ± 0.11
SKFDPDDPGQPVRFTVMIPVPEDAMKNGDLEEVRDKVEEAADMFRPHGMEVKDIEVPPEQGWVMVKFEMPSA [r9_75_TrROS] | -0.0605 ± 0.65
SAGGSAGKPVLVRVKLRLEFPGTGELAEAEVVVEADSIEDALDRVLKELTLPDFKAEVLDVKAIPLSAGGSA [r2_320_TrMRF] | 2.16 ± 0.13
SAGGSAGGSAGMKTVTETEFDPAAPVVTTTTSLVTLPPDGKPSITSTTTTTTAVAAPAAAASAGGSAGGSAG [r3_138_JUSTAS] | 1.03 ± 0.062
SAGGEFRITFMVPADPNDPAVELAKWIADEFMPPGWKVEVDIKVVPSPDGYYMIDIPVEIMPPGQPISAGGS [r16_128_TrROS] | 2.49 ± 0.18
SAGGSAGGSAGGENDWIPIRMEMTFKLPNGVKITIKMEMWVQPDGDILGMRIHDIEIEVPSAGGSAGGSAGG [r7_356_TrROS] | 4.54 ± 0.21
SAGGSAGGSKKRTILIQFPNGSPEEAVDNIKNWLRALGNEPIPLEDVKIQWYPGNPGYFQIEISAGGSAGGS [r12_122_TrROS] | 2.53 ± 0.12
